Assay results reported in paper PMC10987413.
pKd: −log10 of the molar value.

Target: GST-DCL3 F5 (UniProt Q9LXW7)
Test: MST
Details: MST: 50 mM Tris-HCl pH 7.4, 150 mM NaCl, 10 mM MgCl2, 0.01% Tween 20, 100 nM RED-NHS labelled protein, incubation 5 min at room temperature (instrument printed …)

Chain of UniProt Q9LXW7 (Q9LXW7 whole entry): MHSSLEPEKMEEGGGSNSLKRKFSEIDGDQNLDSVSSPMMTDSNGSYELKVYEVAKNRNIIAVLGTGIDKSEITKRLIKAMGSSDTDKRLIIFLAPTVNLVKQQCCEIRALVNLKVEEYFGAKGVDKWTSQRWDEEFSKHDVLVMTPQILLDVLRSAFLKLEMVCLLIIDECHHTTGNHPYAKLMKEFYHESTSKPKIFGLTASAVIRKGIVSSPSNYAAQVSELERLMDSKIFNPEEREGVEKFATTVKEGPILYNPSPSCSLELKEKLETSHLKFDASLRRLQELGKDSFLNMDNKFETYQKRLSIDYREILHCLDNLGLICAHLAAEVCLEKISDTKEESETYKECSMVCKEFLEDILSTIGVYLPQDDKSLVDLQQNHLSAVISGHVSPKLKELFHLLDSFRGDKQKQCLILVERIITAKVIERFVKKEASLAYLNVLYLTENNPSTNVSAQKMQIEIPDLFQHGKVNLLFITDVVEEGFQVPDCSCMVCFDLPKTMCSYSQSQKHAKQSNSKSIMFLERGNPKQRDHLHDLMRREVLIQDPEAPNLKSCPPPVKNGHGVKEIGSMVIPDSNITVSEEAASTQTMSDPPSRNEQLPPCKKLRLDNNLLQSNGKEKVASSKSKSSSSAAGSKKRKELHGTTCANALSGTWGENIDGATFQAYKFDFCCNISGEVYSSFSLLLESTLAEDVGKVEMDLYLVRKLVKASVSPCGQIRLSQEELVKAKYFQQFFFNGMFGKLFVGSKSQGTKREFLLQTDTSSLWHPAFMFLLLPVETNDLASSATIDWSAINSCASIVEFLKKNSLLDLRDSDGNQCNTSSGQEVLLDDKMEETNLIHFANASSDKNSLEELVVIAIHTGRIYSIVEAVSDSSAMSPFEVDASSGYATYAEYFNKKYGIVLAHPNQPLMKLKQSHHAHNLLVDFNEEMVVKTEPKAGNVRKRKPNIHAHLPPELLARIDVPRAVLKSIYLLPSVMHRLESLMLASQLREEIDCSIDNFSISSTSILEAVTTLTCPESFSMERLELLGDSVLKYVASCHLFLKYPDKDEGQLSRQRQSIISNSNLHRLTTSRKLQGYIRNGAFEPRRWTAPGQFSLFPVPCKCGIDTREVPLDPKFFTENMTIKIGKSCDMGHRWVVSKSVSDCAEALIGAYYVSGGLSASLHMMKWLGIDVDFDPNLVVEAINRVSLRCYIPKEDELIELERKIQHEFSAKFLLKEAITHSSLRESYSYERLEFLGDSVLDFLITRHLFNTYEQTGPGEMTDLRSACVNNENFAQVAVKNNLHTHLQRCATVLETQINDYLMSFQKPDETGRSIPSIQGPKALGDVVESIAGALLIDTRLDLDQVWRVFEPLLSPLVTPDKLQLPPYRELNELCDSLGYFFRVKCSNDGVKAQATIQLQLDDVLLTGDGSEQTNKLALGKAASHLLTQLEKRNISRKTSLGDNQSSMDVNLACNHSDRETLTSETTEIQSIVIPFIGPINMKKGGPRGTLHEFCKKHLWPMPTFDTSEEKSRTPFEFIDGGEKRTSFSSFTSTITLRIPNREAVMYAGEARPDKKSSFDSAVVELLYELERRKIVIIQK

**Q.** With “UGAAUUUCUGGUAUGGGUCCCGCC / CGGGACCCAUACCAGAAAUUCAUC [24-bp ds-sRNA (dsAtSN1)]” as the substance, how does the pKd read?
**A.** Its pKd is 6.26.

**Q.** How did the pKd turn out when 21-nt ss-sRNA was run?
**A.** The pKd was 5.73.

**Q.** “AGAAUCUUGAUGAUGCUGCAU / GUGGCAUCAUCAAGAUUCACA [miR172a duplex]” was tested. Which pKd did it give?
**A.** Its pKd is 6.03.

**Q.** With “UCGCUUGGUGCAGGUCGGGAA / CCCGCCUUGCAUCAACUGAAU [miR168a duplex]” as the substance, how does the pKd read?
**A.** Its pKd is 5.97.

**Q.** 55-nt ss-sRNA was tested. Which pKd did it give?
**A.** The pKd was 5.94.

**Q.** With “UCAACAGGAUCGAGCUUAAGG / UUAAGCUCGAUCCUGUUGACG [21-bp ds-sRNA (ds siRGFP)]” as the substance, how does the pKd read?
**A.** The pKd was 6.24.

**Q.** “UACAAGACACGUGCUGAAGUCAAGUUUGAGGGAACACCCUCGUCAACAGGAUCG / AUCCUGUUGACGAGGGUGUCUCCCUCAAACUUGACUUCAGCACGUGUCUUGUAGU [55-bp ds-sRNA]” was tested. Which pKd did it give?
**A.** The pKd was 6.23.

**Q.** With 24-nt ss-sRNA as the substance, how does the pKd read?
**A.** Its pKd is 5.91.
